In US7514408:
Square brackets hold non-standard residues; d marks the D form. Ends that are not written are not given here. Sta = CC(C)C[C@H](N)[C@@H](O)CC(=O)O; Phg = N[C@H](C(=O)O)c1ccccc1; Tle = CC(C)(C)[C@H](N)C(=O)O; Abu = CC[C@H](N)C(=O)O

Key:
[1] = biological target: β-secretase (enzyme preparation not stated for the inhibitor assays) (human) (UniProt P56817); test: cell-based or functional assay
[2] = biological target: Swedish mutant P13-P5′ peptide with P1′ aspartic acid replaced with a valine (D→V), P05067
[3] = biological target: Swedish mutant P13-P5′ peptide with P1′ aspartic acid replaced with a leucine (D→L), P05067
Sequence of Swedish mutant P13-P5′ peptide with P1′ aspartic acid replaced with a leucine (D→L), P05067 (P05067 whole entry, looked up, change not shown, tested part not stated): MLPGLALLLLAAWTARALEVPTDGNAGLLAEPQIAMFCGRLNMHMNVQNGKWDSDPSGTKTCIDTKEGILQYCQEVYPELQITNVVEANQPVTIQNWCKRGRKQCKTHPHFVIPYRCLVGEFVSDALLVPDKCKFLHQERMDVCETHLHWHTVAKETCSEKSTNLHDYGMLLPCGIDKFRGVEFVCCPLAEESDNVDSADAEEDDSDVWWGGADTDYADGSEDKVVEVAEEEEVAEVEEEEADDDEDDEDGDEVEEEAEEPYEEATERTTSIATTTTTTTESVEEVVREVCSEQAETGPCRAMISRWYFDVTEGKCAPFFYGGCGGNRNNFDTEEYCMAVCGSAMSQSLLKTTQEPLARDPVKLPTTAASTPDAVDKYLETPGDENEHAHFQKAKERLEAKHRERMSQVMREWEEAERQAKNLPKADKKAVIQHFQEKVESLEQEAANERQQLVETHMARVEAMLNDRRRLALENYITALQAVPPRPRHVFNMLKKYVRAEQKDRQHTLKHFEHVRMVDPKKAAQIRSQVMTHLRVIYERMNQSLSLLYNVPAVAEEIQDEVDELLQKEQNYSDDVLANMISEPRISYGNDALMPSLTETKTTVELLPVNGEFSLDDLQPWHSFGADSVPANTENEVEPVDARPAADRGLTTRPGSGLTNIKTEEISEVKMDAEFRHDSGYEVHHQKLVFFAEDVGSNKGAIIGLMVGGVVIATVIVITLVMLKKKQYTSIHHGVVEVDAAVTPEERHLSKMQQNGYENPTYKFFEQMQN

Sequence of Swedish mutant P13-P5′ peptide with P1′ aspartic acid replaced with a valine (D→V), P05067 (P05067 whole entry, looked up, change not shown, tested part not stated): as above

## Ac-VE[Sta]VAEF [heptamer peptide 7K (Ac-Val-Glu-Sta-Val-Ala-Glu-Phe)]
[1]
  IC50 Group, MBP C125 assay (Group II: =1<10 µM): < 10 µM

## Ac-VM[Sta][Phg]AEF [heptamer peptide 7D (Ac-Val-Met-Sta-Phg-Ala-Glu-Phe)]
[1]
  IC50 Group, MBP C125 assay (Group II: =1<10 µM): < 10 µM

## Ac-VM[Sta][Tle]AEF [heptamer peptide 7F (Ac-Val-Met-Sta-tLeu-Ala-Glu-Phe)]
[1]
  IC50 Group, MBP C125 assay (Group IV: =20<50 µM): < 50 µM

## Ac-VG[Sta]VAEF [heptamer peptide 7M (Ac-Val-Gly-Sta-Val-Ala-Glu-Phe)]
[1]
  IC50 Group, MBP C125 assay (Group II: =1<10 µM): < 10 µM

## Ac-VM[Sta]AAEF [heptamer peptide 7E (Ac-Val-Met-Sta-Ala-Ala-Glu-Phe)]
[1]
  IC50 Group, MBP C125 assay (Group II: =1<10 µM): < 10 µM

## Ac-VM[Sta][Abu]AEF [heptamer peptide 7C (Ac-Val-Met-Sta-Abu-Ala-Glu-Phe)]
[1]
  IC50 Group, MBP C125 assay (Group II: =1<10 µM): < 10 µM

## Ac-VM[Sta]AEF [hexameric peptide 7N (Ac-Val-Met-Sta-Ala-Glu-Phe, P1′ deleted)]
[1]
  IC50 Group, MBP C125 assay (Group II: =1<10 µM): < 10 µM

## H-VM[Sta]VEF [hexameric peptide 7R ((NH2)Val-Met-Sta-Val-Glu-Phe, P2′ deleted)]
[1]
  IC50 Group, MBP C125 assay (Group II: =1<10 µM): < 10 µM

B1: β-secretase purified from human brain (naturally occurring β-secretase) (protein)
chain: ETDEEPEEPGRRGSFVEMVDNLRGKSGQGYYVEMTVGSPPQTLNILVDTGSSNFAVGAAPHPFLHRYYQRQLSSTYRDLRKGVYVPYTQGKWEGELGTDLVSIPHGPNVTVRANIAAITESDKFFINGSNWEGILGLAYAEIARPDDSLEPFFDSLVKQTHVPNLFSLQLCGAGFPLNQSEVLASVGGSMIIGGIDHSLYTGSLWYTPIRREWYYEVIIVRVEINGQDLKMDCKEYNYDKSIVDSGTTNLRLPKKVFEAAVKSIKAASSTEKFPDGFWLGEQLVCWQAGTTPWNIFPVISLYLMGEVTNQSFRITILPQQYLRPVEDVATSQDDCYKFAISQSSTGTVMGAVIMEGFYVVFDRARKRIGFAVSACHVHDEFRTAAVEGPFVTLDMEDCGYNIPQTDESTLMTIAYVMAAICALFMLPLCLMVCQWRCLRCLRQQHDDFADDISLLK
[2]
  substrate concentration dependence of hydrolysis by brain β-secretase: The valine and leucine substituted Swedish peptides show saturation at a lower concentration than the parent Swedish peptide
[3]
  substrate concentration dependence of hydrolysis by brain β-secretase: The valine and leucine substituted Swedish peptides show saturation at a lower concentration than the parent Swedish peptide

## Ac-VV[Sta]VAEF [heptamer peptide 7L (Ac-Val-Val-Sta-Val-Ala-Glu-Phe)]
[1]
  IC50 Group, MBP C125 assay (Group IV: =20<50 µM): < 50 µM
